From patent US6676943

Target: human complement protein C3, P01024
Sequence (P01024 whole entry, looked up): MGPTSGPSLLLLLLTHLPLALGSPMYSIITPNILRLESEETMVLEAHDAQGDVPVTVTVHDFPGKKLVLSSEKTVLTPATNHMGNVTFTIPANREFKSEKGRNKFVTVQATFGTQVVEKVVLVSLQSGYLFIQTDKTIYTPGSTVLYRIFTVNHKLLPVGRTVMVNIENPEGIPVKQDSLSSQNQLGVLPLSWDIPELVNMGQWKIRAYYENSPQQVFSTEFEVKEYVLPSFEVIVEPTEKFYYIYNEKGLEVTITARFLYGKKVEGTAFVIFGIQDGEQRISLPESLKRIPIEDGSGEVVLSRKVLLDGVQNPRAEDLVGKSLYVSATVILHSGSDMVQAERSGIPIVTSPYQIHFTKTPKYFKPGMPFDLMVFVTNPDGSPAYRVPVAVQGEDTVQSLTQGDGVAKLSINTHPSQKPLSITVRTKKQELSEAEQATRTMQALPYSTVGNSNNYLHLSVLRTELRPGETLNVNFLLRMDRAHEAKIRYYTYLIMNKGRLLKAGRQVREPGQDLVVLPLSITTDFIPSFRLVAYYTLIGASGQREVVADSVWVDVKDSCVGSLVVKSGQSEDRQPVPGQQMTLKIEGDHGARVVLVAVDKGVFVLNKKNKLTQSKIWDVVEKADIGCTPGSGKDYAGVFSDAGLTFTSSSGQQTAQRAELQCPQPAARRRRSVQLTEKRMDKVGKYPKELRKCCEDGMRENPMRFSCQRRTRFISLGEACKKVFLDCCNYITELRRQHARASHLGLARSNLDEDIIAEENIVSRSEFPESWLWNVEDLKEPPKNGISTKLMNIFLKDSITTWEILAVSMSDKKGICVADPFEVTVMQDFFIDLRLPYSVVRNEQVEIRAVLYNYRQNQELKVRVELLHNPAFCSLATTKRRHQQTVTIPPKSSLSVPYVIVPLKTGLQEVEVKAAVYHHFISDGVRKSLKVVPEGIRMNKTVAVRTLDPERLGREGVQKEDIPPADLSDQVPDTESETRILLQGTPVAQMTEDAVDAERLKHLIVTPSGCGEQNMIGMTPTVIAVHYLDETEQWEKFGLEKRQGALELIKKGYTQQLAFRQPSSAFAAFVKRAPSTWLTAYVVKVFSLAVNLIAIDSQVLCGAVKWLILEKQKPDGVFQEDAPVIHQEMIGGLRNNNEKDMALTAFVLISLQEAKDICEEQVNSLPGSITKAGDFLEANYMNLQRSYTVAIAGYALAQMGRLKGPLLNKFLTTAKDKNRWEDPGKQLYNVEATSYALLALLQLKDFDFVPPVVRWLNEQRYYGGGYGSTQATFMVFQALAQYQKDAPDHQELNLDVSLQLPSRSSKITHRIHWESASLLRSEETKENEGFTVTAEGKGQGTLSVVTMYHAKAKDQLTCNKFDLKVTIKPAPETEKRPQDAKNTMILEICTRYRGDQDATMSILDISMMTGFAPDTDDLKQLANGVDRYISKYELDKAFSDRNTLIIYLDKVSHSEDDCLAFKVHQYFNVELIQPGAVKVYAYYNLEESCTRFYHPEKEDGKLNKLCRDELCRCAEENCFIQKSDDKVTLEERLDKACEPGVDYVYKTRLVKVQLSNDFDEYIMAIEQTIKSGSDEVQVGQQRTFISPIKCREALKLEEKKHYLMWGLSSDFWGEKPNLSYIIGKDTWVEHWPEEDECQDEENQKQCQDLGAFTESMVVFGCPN

B1: His-tagged CppA protein (recombinant C3-degrading proteinase of Streptococcus pneumoniae encoded by ORF3 / cppA) (protein)
chain: MNVNQIVRIIPTLKANNRKLNETFYIETLGMKALLEESAFLSLGDQTGLEKLVLEEAPSMRTRKVEGRKKLARLIVKVENPLEIEGILSKTDSIHRLYKGQNGYAFEIFSPEDDLILIHAEDDIASLVEVGEKPEFQTDLASISLSKFEISMELHLPTDIESFLESSEIGASLDFIPAQGQDLTVDNTVTWDLSMLKFLVNELDIASLRQKFESTEYFIPKSEKFFLGKDRNNVELWFEEV
C3 degradation (4 hrs at 37 C in PBS; reducing SDS-PAGE and Western Blot with polyclonal anti-C3): the protein degraded human C3 protein. Both α and β chains of C3 molecules were susceptible to degradation | C3 degradation (4 hrs at 37 C in PBS; reducing SDS-PAGE and Western immunoblotting with polyclonal anti-C3): the samples that contained the expressed protein degraded C3 molecules ... the α chain was almost completely degraded while the β chain was partially degraded in the ORF3 samples
